The target of experiment [1] is carbohydrate containing epitope on CD43 and/or CEA as expressed on COLO 205 colorectal cancer cells. Kind of experiment: flow cytometry on Colo 205 cells, secondary antibody alone.
Experiment [2] concerns the target carbohydrate containing epitope on CD43 and/or CEA as expressed on SU.86.86 pancreatic cancer cells. The experiment is described as follows: flow cytometry on SU.86.86 cells, secondary antibody alone at 1 ug/ml.
For experiment [3], the target named is carbohydrate containing epitope on CD43 and/or CEA as expressed on COLO 205 colorectal cancer cells. Kind of experiment: flow cytometry on Colo 205 cells, antibody at 1 ug/ml, R-PE secondary.
Experiment [4] has the same target. Kind of experiment: flow cytometry on Colo 205 cells, control antibody.
Experiment [5] deals with carbohydrate containing epitope on CD43 and/or CEA as expressed on SU.86.86 pancreatic cancer cells. Kind of experiment: flow cytometry on SU.86.86 cells, antibody at 1 ug/ml, R-PE anti-mouse secondary.
Experiment [6] concerns the target carbohydrate containing epitope on CD43 and/or CEA as expressed on COLO 205 colorectal cancer cells. The experiment is described as follows: flow cytometry on Colo 205 cells, antibody at 1 ug/ml, R-PE anti-mouse secondary.
For experiment [7], the target named is carbohydrate containing epitope on CD43 and/or CEA as expressed on SU.86.86 pancreatic cancer cells. The experiment is described as follows: cell-based or functional assay.

In experiment [1], “R-PE-conjugated goat F(ab')2 anti-mouse IgG(H+L), Southern Biotech, Cat. No.1032-09 (antibody)” registered a background signal (MFI) of 3 MFI. Further, the MFI in experiment [2] stood at 6 MFI.

“R-PE-conjugated goat anti-human IgG, Southern Biotech, Cat. No.2040-09 (antibody)”: the background signal (MFI) in experiment [1] worked out at 3 MFI.

hIgG1 (control antibody of Table 10) came in with a Median Fluorescence Intensity (MFI) in experiment [3] of 6 MFI.

As to human IgG (control antibody of FIG. 3), the background signal (MFI) in experiment [4] came to 5 MFI.

In experiment [3], mIgG3 (control antibody of Table 10) came in with a Median Fluorescence Intensity (MFI) of 7 MFI.

In the case of mouse IgG (control antibody of FIG. 3), the background signal (MFI) in experiment [4] is 4 MFI.

B1: murine 5F1 antibody (m5F1) (antibody, V domains shown)
VH: EVQLQQSGPELVKPGASVRMSCTASGYTFTSYVMHWIKQKPGQGLDWIGYINPYNGGTQYNEKFKGKATLTSDKSSSTAYMELSSLTSEDSAVYYCARRTFPYYFDYWGQGTTLTVSS
VL: DVLMTQTPLSLPVSLGDQASISCRSSQSILHSNGNTYLEWYLQKPGQSPKLLIYKVSNRFSGVPDRFSGSGSGTDFTLKISRVEAEDLGVYYCFQGSHAPLTFGAGTKLELK
In experiment [5], B1 displayed an MFI of 131 MFI. Moreover, the Median Fluorescence Intensity (MFI) in experiment [6] was found to be 800 MFI. Besides, in experiment [7], the % of Annexin V and/or PI positive cells, SU.86.86 cells, 6 h, m5F1 at 2 ug/ml amounted to 60%; the % of Annexin V and/or PI positive cells, SU.86.86 cells, 6 h, m5F1 at 4 ug/ml came to 72%; the % of Annexin V and/or PI positive cells, SU.86.86 cells, 6 h, m5F1 at 8 ug/ml turned out to be 78%; the % of Annexin V and/or PI positive cells, SU.86.86 cells, 6 h, m5F1 at 16 ug/ml amounted to 89%. In experiment [7], this molecule returned a % of Annexin V and/or PI positive cells, SU.86.86 cells, 6 h, m5F1 at 32 ug/ml of 91%.

Values taken from patent publication US20110280888A1.
